Measurements reported in US20250304644A1, “PEPTIDES TRIPLE AGONISTS OF GIP, GLP-1 AND GLP-2” (BAINAN BIOTECH APS, priority 2021, published 2025).
Where a chain is given by its changes, count along the chain named. Where a SMILES comes first, the peptide text is derived from it. Where no end group is shown, it is not given here. [ ]: non-standard residue; d: D form. The star is where a group is joined. Decanoyl = CCCCCCCCCC(=O)*; Aib = CC(C)(N)C(=O)O

T1: human GIPR (Homo sapiens, UniProt P48546)
T1 construct: host or cells: COS-7
T1 sequence (P48546 22-466): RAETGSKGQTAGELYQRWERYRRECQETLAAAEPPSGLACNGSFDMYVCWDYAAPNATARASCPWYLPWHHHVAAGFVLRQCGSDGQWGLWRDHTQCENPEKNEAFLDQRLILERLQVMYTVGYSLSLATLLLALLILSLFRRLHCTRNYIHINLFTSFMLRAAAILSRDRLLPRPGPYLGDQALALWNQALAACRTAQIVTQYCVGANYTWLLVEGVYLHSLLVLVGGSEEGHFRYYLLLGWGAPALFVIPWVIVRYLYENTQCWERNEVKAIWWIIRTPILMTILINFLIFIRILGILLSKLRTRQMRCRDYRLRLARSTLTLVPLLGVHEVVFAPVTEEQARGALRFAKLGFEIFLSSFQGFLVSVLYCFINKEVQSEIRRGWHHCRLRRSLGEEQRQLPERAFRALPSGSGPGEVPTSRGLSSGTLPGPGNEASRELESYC

T2: human GIPR (glucose-dependent insulinotropic polypeptide receptor) (human, UniProt P48546 22-466)
T2 sequence (looked up): T1 sequence (P48546 22-466)

T3: human GLP-2R (glucagon-like peptide-2 receptor) (human, UniProt O95838 1-553)
T3 sequence (looked up): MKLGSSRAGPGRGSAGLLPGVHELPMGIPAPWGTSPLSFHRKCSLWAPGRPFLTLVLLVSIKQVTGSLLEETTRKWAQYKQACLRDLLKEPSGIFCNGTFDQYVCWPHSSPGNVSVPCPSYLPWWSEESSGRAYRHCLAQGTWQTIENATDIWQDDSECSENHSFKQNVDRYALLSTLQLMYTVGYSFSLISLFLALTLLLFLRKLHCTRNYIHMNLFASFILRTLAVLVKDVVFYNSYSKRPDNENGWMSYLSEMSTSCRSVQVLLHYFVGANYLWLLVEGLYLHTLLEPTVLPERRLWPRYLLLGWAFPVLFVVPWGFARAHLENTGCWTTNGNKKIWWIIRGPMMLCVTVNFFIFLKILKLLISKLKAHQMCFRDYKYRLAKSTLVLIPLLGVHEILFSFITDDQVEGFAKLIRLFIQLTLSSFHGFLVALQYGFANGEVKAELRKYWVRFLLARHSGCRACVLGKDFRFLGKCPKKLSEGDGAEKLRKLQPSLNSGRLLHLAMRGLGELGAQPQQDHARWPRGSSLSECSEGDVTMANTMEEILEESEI

B1: Compound 16 (peptide)
peptide: Y[Aib]DGTFISDYSTILDNLAARDFINWLIQTKITK(Decanoyl)-NH2
modifications: N-terminus assumed
SMILES: CCCCCCCCCC(=O)NCCCC[C@H](NC(=O)[C@@H](NC(=O)[C@@H](NC(=O)[C@H](CCCCN)NC(=O)[C@@H](NC(=O)[C@H](CCC(N)=O)NC(=O)[C@@H](NC(=O)[C@H](CC(C)C)NC(=O)[C@H](Cc1c[nH]c2ccccc12)NC(=O)[C@H](CC(N)=O)NC(=O)[C@@H](NC(=O)[C@H](Cc1ccccc1)NC(=O)[C@H](CC(=O)O)NC(=O)[C@H](CCCNC(=N)N)NC(=O)[C@H](C)NC(=O)[C@H](C)NC(=O)[C@H](CC(C)C)NC(=O)[C@H](CC(N)=O)NC(=O)[C@H](CC(=O)O)NC(=O)[C@H](CC(C)C)NC(=O)[C@@H](NC(=O)[C@@H](NC(=O)[C@H](CO)NC(=O)[C@H](Cc1ccc(O)cc1)NC(=O)[C@H](CC(=O)O)NC(=O)[C@H](CO)NC(=O)[C@@H](NC(=O)[C@H](Cc1ccccc1)NC(=O)[C@@H](NC(=O)CNC(=O)[C@H](CC(=O)O)NC(=O)C(C)(C)NC(=O)[C@@H](N)Cc1ccc(O)cc1)[C@@H](C)O)[C@@H](C)CC)[C@@H](C)O)[C@@H](C)CC)[C@@H](C)CC)[C@@H](C)CC)[C@@H](C)O)[C@@H](C)CC)[C@@H](C)O)C(N)=O
B2: Compound 9 (peptide)
peptide: HXDGTFISDYSTILDNLAARDFIEWLIQTKITK
modifications: Aib at position 2; K33 acylated with C10, K(C10); C-terminal amide (-NH2)
B3: Compound 12 (peptide)
peptide: B2 peptide with I13X, E24N
modifications: Aib at positions 2 and 13; K33 acylated with C10, K(C10); C-terminal amide (-NH2)
B4: Compound 17 (peptide)
peptide: B2 peptide with E24N
modifications: Aib at position 2; K33 acylated with C10 via γGlu linker, K(γGlu-C10); C-terminal amide (-NH2)
B5: Compound 11 (peptide)
peptide: H[Aib]EGTFISDYSTILDNLAARDFINWLIQTKITK(Decanoyl)-NH2
B6: Compound 13 (peptide)
peptide: H[Aib]DGTFISDYSTELDNLAARDFINWLIQTKITK(Decanoyl)-NH2
modifications: N-terminus assumed
SMILES: CCCCCCCCCC(=O)NCCCC[C@H](NC(=O)[C@@H](NC(=O)[C@@H](NC(=O)[C@H](CCCCN)NC(=O)[C@@H](NC(=O)[C@H](CCC(N)=O)NC(=O)[C@@H](NC(=O)[C@H](CC(C)C)NC(=O)[C@H](Cc1c[nH]c2ccccc12)NC(=O)[C@H](CC(N)=O)NC(=O)[C@@H](NC(=O)[C@H](Cc1ccccc1)NC(=O)[C@H](CC(=O)O)NC(=O)[C@H](CCCNC(=N)N)NC(=O)[C@H](C)NC(=O)[C@H](C)NC(=O)[C@H](CC(C)C)NC(=O)[C@H](CC(N)=O)NC(=O)[C@H](CC(=O)O)NC(=O)[C@H](CC(C)C)NC(=O)[C@H](CCC(=O)O)NC(=O)[C@@H](NC(=O)[C@H](CO)NC(=O)[C@H](Cc1ccc(O)cc1)NC(=O)[C@H](CC(=O)O)NC(=O)[C@H](CO)NC(=O)[C@@H](NC(=O)[C@H](Cc1ccccc1)NC(=O)[C@@H](NC(=O)CNC(=O)[C@H](CC(=O)O)NC(=O)C(C)(C)NC(=O)[C@@H](N)Cc1c[nH]cn1)[C@@H](C)O)[C@@H](C)CC)[C@@H](C)O)[C@@H](C)CC)[C@@H](C)CC)[C@@H](C)O)[C@@H](C)CC)[C@@H](C)O)C(N)=O
B7: Compound 10 (peptide)
peptide: H[Aib]DGTFISDYSIILDNLAARDFINWLIQTKITK(Decanoyl)-NH2
B8: Compound 5 (peptide)
peptide: H[Aib]DGTFISDYSTILDALAARDFINWLIQTKITK(Decanoyl)-NH2
modifications: N-terminus assumed
SMILES: CCCCCCCCCC(=O)NCCCC[C@H](NC(=O)[C@@H](NC(=O)[C@@H](NC(=O)[C@H](CCCCN)NC(=O)[C@@H](NC(=O)[C@H](CCC(N)=O)NC(=O)[C@@H](NC(=O)[C@H](CC(C)C)NC(=O)[C@H](Cc1c[nH]c2ccccc12)NC(=O)[C@H](CC(N)=O)NC(=O)[C@@H](NC(=O)[C@H](Cc1ccccc1)NC(=O)[C@H](CC(=O)O)NC(=O)[C@H](CCCNC(=N)N)NC(=O)[C@H](C)NC(=O)[C@H](C)NC(=O)[C@H](CC(C)C)NC(=O)[C@H](C)NC(=O)[C@H](CC(=O)O)NC(=O)[C@H](CC(C)C)NC(=O)[C@@H](NC(=O)[C@@H](NC(=O)[C@H](CO)NC(=O)[C@H](Cc1ccc(O)cc1)NC(=O)[C@H](CC(=O)O)NC(=O)[C@H](CO)NC(=O)[C@@H](NC(=O)[C@H](Cc1ccccc1)NC(=O)[C@@H](NC(=O)CNC(=O)[C@H](CC(=O)O)NC(=O)C(C)(C)NC(=O)[C@@H](N)Cc1c[nH]cn1)[C@@H](C)O)[C@@H](C)CC)[C@@H](C)O)[C@@H](C)CC)[C@@H](C)CC)[C@@H](C)CC)[C@@H](C)O)[C@@H](C)CC)[C@@H](C)O)C(N)=O

Columns and labels:
[1] = biological target: T4, human GLP-1R (Homo sapiens, UniProt P43220); assay: cAMP assay (HitHunter) in transiently transfected COS-7 cells expressing human GLP-1R; format: cell-based; conditions: COS-7; normalized to highest concentration of the endogenous ligand; read-out: Efficacy GLP-1R (Emax)
T4 construct: host or cells: COS-7
Procedure: (§1) The next day the assay was initiated by washing with HEPES buffered saline (HBS) and followed by an incubation step with assay buffer (HBS added 1 mM isobutyl-1-methylxanthine (IBMX)) for 30 min at 37° C. The ligands were then added and incubated for an additional 30 min at 37° C. After ligand incubation, the HitHunter® CAMP assay (Eurofins DiscoverX, Fremont, […] USA) was carried out according to the manufacturer's instructions. […] The potencies (EC50 values) were determined by nonlinear regression using GraphPad Prism 9 (San Diego, California, USA). Sigmoid curves were fitted logistically. The efficacies (Emax values) were determined by normalization to the highest concentration applied of the endogenous ligand for each receptor.

[2] = biological target: T1, human GIPR; assay: cAMP assay (HitHunter) in transiently transfected COS-7 cells expressing human GIPR; format: cell-based
Procedure: as §1

[3] = biological target: T2, human GIPR (glucose-dependent …); assay: cell-based or functional assay
[4] = biological target: T3, human GLP-2R (glucagon-like peptide-2 …); assay: cell-based or functional assay
[5] = biological target: human GLP-1R (glucagon-like peptide-1 receptor) (human, UniProt P43220 24-463); assay: cell-based or functional assay

T4 sequence (P43220 24-463): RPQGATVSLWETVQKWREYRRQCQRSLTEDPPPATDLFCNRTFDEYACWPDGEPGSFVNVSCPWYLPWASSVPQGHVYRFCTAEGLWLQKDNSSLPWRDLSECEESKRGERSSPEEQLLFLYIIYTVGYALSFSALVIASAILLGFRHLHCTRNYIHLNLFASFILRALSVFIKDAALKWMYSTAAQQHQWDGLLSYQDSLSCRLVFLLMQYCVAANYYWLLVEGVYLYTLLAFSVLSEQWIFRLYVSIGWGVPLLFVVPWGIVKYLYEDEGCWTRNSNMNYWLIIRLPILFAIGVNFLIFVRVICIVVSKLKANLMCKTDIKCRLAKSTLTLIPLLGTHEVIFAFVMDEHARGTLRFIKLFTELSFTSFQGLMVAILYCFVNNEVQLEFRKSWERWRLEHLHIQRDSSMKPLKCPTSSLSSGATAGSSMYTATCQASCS

| Molecule | Emax [1] | Emax ([2]; COS-7, normalized to highest concentration of the endogenous ligand, read-out: Efficacy GIPR (Emax)) | EC50 ([2]; cAMP, COS-7 cells, human GIPR) | EC50 (nM) GIPR [3] | Efficacy GIPR [3] | pEC50 GIPR [3] | EC50 (nM) GLP-2R [4] | Efficacy GLP-2R [4] | logEC50 GLP-2R [4] | EC50 (nM) GLP-1R [5] | Efficacy GLP-1R [5] | logEC50 GLP-1R [5] |
| --- | --- | --- | --- | --- | --- | --- | --- | --- | --- | --- | --- | --- |
| CCCCCCCCCC(=O)NCCCC[C@H](NC(=O)[C@@H](NC(=O)[C@@H](NC(=O)[C@H](CCCCN)NC(=O)[C@@H](NC(=O)[C@H](CCC(N)=O)NC(=O)[C@@H](NC(=O)[C@H](CC(C)C)NC(=O)[C@H](Cc1c[nH]c2ccccc12)NC(=O)[C@H](CC(N)=O)NC(=O)[C@@H](NC(=O)[C@H](Cc1ccccc1)NC(=O)[C@H](CCC(=O)O)NC(=O)[C@H](CCCNC(=N)N)NC(=O)[C@H](C)NC(=O)[C@H](C)NC(=O)[C@H](CC(C)C)NC(=O)[C@H](CC(N)=O)NC(=O)[C@H](CC(=O)O)NC(=O)[C@H](CC(C)C)NC(=O)[C@@H](NC(=O)[C@@H](NC(=O)[C@H](CO)NC(=O)[C@H](Cc1ccc(O)cc1)NC(=O)[C@H](CC(=O)O)NC(=O)[C@H](CO)NC(=O)[C@@H](NC(=O)[C@H](Cc1ccccc1)NC(=O)[C@@H](NC(=O)CNC(=O)[C@H](CC(=O)O)NC(=O)C(C)(C)NC(=O)[C@@H](N)Cc1c[nH]cn1)[C@@H](C)O)[C@@H](C)CC)[C@@H](C)O)[C@@H](C)CC)[C@@H](C)CC)[C@@H](C)CC)[C@@H](C)O)[C@@H](C)CC)[C@@H](C)O)C(N)=O [Compound 8] (H-H[Aib]DGTFISDYSTILDNLAAREFINWLIQTKITK(Decanoyl)-NH2; N-terminus assumed) | 98% | 99% | 1.12 nM |  |  |  |  |  |  |  |  |  |
| B1 |  |  |  | 1 nM | 99 | 9 | 8.9 nM | 93 | 8.1 | 56.2 nM | 59 | 7.3 |
| B2 |  |  |  | 0.708 nM | 104 | 9.2 |  | 108 | 8 | 5.62 nM | 105 | 8.3 |
| B3 |  |  |  |  | 107 |  |  | 77 |  |  | 76 |  |
| B4 |  |  |  |  | 97 |  |  | 92 |  |  | 107 |  |
| B5 |  |  |  | 13.6 nM | 89 | 7.9 | 25.1 nM | 68 | 7.6 | 39.8 nM | 76 | 7.4 |
| B6 |  |  |  | 7.94 nM | 117 | 8.1 | 25.1 nM | 86 | 7.6 | 25.1 nM | 85 | 7.6 |
| B7 |  |  |  | 0.501 nM | 127 | 9.3 |  | 103 | 8 | 3.98 nM | 99 | 8.4 |
| B8 |  |  |  | 0.158 nM | 111 | 9.8 |  | 110 | 8.7 | 1.78 nM | 105 | 8.8 |
